B1: human recombinant His6-SIRT2 (Homo sapiens) (protein)
chain: MAEPDPSHPLETQAGKVQEAQDSDSDSEGGAAGGEADMDFLRNLFSQTLSLGSQKERLLDELTLEGVARYMQSERCRRVICLVGAGISTSAGIPDFRSPSTGLYDNLEKYHLPYPEAIFEISYFKKHPEPFFALAKELYPGQFKPTICHYFMRLLKDKGLLLRCYTQNIDTLERIAGLEQEDLVEAHGTFYTSHCVSASCRHEYPLSWMKEKIFSEVTPKCEDCQSLVKPDIVFFGESLPARFFSCMQSDFLKVDLLLVMGTSLQVQPFASLISKAPLSTPRLLINKEKAGQSDPFLGMIMGLGGGMDFDSKKAYRDVAWLGECDQGCLALAELLGWKKELEDLVRREHASIDAQSGAGVPNPSTSASPKKSPPPAKDEARTTEREKPQ
notes: His6; purchased Cayman Chemical
B2: human recombinant His6-SIRT3 (Homo sapiens) (protein)
chain: MAFWGWRAAAALRLWGRVVERVEAGGGVGPFQACGCRLVLGGRDDVSAGLRGSHGARGEPLDPARPLQRPPRPEVPRAFRRQPRAAAPSFFFSSIKGGRRSISFSVGASSVVGSGGSSDKGKLSLQDVAELIRARACQRVVVMVGAGISTPSGIPDFRSPGSGLYSNLQQYDLPYPEAIFELPFFFHNPKPFFTLAKELYPGNYKPNVTHYFLRLLHDKGLLLRLYTQNIDGLERVSGIPASKLVEAHGTFASATCTVCQRPFPGEDIRADVMADRVPRCPVCTGVVKPDIVFFGEPLPQRFLLHVVDFPMADLLLILGTSLEVEPFASLTEAVRSSVPRLLINRDLVGPLAWHPRSRDVAQLGDVVHGVESLVELLGWTEEMRDLVQRETGKLDGPDK
notes: as for B1

Key:
Assay type in all cases: biochemical, human
[1] = substrate: CSCC[C@H](NC(=O)[C@@H]1CCCCNC(=O)CCC(=O)NCCCC[C@H](NC(C)=O)C(=O)N[C@@H](CCCCN)C(=O)N[C@@H](CCCCNC(C)=O)C(=O)N1)C(N)=O; assay: HPLC-based sirtuin deacylation activity assay, SIRT2; conditions: other: substrate activity with SIRT2, 50 mM Hepes pH 8.0, 0.5 mM β-NAD+, His6-SIRT2 297 nM, 37 °C, 2 min, HPLC 214 nm, Michaelis-Menten fit
Experimental: (§1) The steady-state kinetic parameters (kcat and KM) for the SIRT1/2/3 substrate activities of the purified 5–8 were determined with a HPLC-based sirtuin deacylation activity assay and are recorded in Table 2 and Table 3. As judged by kcat/KM ratios, cyclic peptides 5–8 were all found to be excellent SIRT1 substrates, actually 5, 7, and 8 are all better SIRT1 substrates than the linear hexapeptide-based SIRT1 substrate 3 (depicted in Figure 2) reported in the current literature (kcat/KM = 800 M^−1 s^−1). Cyclic peptides 5–8 were also all found to be better SIRT3 substrates than the linear hexapeptide-based SIRT3 substrate 3 reported in the current literature (kcat/KM = 990 M^−1·s^−1).
(§2) The following materials were obtained from commercial sources for the in vitro sirtuin deacylation activity assay and the pronase digestion assay, and were used as received. Sigma-Aldrich China: the active human recombinant His6-SIRT1, Trizma, Hepes, β-NAD^+, a 1.0 M solution of MgCl2 (molecular-biology grade), the pronase from Streptomyces griseus; Cayman Chemical (Ann Arbor, MI, USA): the active human recombinant GST-SIRT1, the active human recombinant His6-SIRT2, the active human recombinant His6-SIRT3; TCI Shanghai: DL-dithiothreitol (DTT); Alfa Aesar China: NaCl, KCl.
(§3) A sirtuin deacylation assay solution contained the following: 50 mM Hepes (pH 8.0), 137 mM NaCl, 2.7 mM KCl, 1 mM MgCl2, 1 mM DTT, β-NAD^+ (~5.6 × KM: 0.5 mM for the SIRT1 and SIRT2 assays, 3.5 mM for the SIRT3 assay), one test compound (5, 6, 7, or 8) with varied concentrations including 0, and a sirtuin (His6-SIRT1 or GST-SIRT1, 243 nM; His6-SIRT2, 297 nM; or His6-SIRT3, 739 nM). An enzymatic reaction was initiated by the addition of a sirtuin at 37 °C and was incubated at 37 °C for 5 min (for the SIRT1 assay) or 2 min (for the SIRT2 and SIRT3 assays) until quenched with the following stop solution: 100 mM HCl and 0.16 M acetic acid. The quenched assay solutions were directly injected into a C18 column (0.46 × 25 cm, 5 μm), and the column was eluted with a gradient of ddH2O containing 0.05% (v/v) TFA and acetonitrile containing 0.05% (v/v) TFA at 1 mL/min and was monitored at 214 nm. Turnover of the limiting substrate was kept at <10%. Stock solutions of the test compounds were all prepared in ddH2O. The integrated product and substrate HPLC peak areas were then used to determine the initial velocities for the sirtuin-catalyzed deacylation reaction at different concentrations of a test compound (5, 6, 7, or 8). The initial velocity-concentration data were analyzed with KaleidaGraph® (Synergy Software, Reading, PA, USA) and the data were fitted to the Michaelis-Menten equation to obtain the kinetic parameters kcat and KM, as recorded in Table 2 and Table 3.

[2] = substrate: CCCCCCCCCCCCCC(=O)NCCCC[C@@H]1NC(=O)[C@H](CCCNC(=N)N)NC(=O)[C@@H](NC(C)=O)CCCCNC(=O)CCCCCCC(=O)NCCCC[C@@H](C(=O)N[C@H](C(N)=O)[C@@H](C)O)NC1=O; assay: as above; conditions: other: substrate activity with SIRT2, 50 mM Hepes pH 8.0, 0.5 mM β-NAD+, His6-SIRT2 297 nM, 37 °C, 2 min, HPLC 214 nm, Michaelis-Menten fit
Experimental: as §1, §2, §3

[3] = substrate: CSCC[C@H](NC(=O)[C@@H]1CCCCNC(=O)CNC(=O)CCCCCCC(=O)NCC(=O)NCCCC[C@H](NC(C)=O)C(=O)N[C@@H](CCCCN)C(=O)N[C@@H](CCCCNC(C)=O)C(=O)N1)C(N)=O; assay: as above; conditions: other: substrate activity with SIRT2, 50 mM Hepes pH 8.0, 0.5 mM β-NAD+, His6-SIRT2 297 nM, 37 °C, 2 min, HPLC 214 nm, Michaelis-Menten fit
Experimental: as §1, §2, §3

[4] = substrate: CSCC[C@H](NC(=O)[C@@H]1CCCCNC(=O)CCC(=O)NCCCC[C@H](NC(C)=O)C(=O)N[C@@H](CCCCN)C(=O)N[C@@H](CCCCNC(C)=O)C(=O)N1)C(N)=O; assay: HPLC-based sirtuin deacylation activity assay, SIRT3; conditions: other: substrate activity with SIRT3, 50 mM Hepes pH 8.0, 3.5 mM β-NAD+, His6-SIRT3 739 nM, 37 °C, 2 min, HPLC 214 nm, Michaelis-Menten fit
Experimental: as §1, §2, §3

[5] = substrate: CCCCCCCCCCCCCC(=O)NCCCC[C@@H]1NC(=O)[C@H](CCCNC(=N)N)NC(=O)[C@@H](NC(C)=O)CCCCNC(=O)CCCCCCC(=O)NCCCC[C@@H](C(=O)N[C@H](C(N)=O)[C@@H](C)O)NC1=O; assay: as above; conditions: other: substrate activity with SIRT3, 50 mM Hepes pH 8.0, 3.5 mM β-NAD+, His6-SIRT3 739 nM, 37 °C, 2 min, HPLC 214 nm, Michaelis-Menten fit
Experimental: as §1, §2, §3

[6] = substrate: CSCC[C@H](NC(=O)[C@@H]1CCCCNC(=O)CNC(=O)CCCCCCC(=O)NCC(=O)NCCCC[C@H](NC(C)=O)C(=O)N[C@@H](CCCCN)C(=O)N[C@@H](CCCCNC(C)=O)C(=O)N1)C(N)=O; assay: as above; conditions: other: substrate activity with SIRT3, 50 mM Hepes pH 8.0, 3.5 mM β-NAD+, His6-SIRT3 739 nM, 37 °C, 2 min, HPLC 214 nm, Michaelis-Menten fit
Experimental: as §1, §2, §3

Row | Protein | Km [1] | kcat [1] | kcat/Km [1] | Km [2] | kcat [2] | kcat/Km [2] | Km [3] | kcat [3] | kcat/Km [3] | Km [4] | kcat [4] | kcat/Km [4] | Km [5] | kcat [5] | kcat/Km [5] | Km [6] | kcat [6] | kcat/Km [6]
1 | B1 | 49.7 ± 7.78 µM | 138.9 ± 26.7 10^−3, s^−1 | (2.79 ± 0.1) × 10^3 M^−1·s^−1 | 37.6 ± 14.4 µM | 90.9 ± 2.62 10^−3, s^−1 | (2.6 ± 0.93) × 10^3 M^−1·s^−1 | 11.6 ± 2.2 µM | 36.0 ± 4.9 10^−3, s^−1 | (3.2 ± 1.0) × 10^3 M^−1·s^−1 | – | – | – | – | – | – | – | – | –
2 | B2 | – | – | – | – | – | – | – | – | – | 34.9 ± 4.04 µM | 155.3 ± 16.6 10^−3, s^−1 | (4.51 ± 1.0) × 10^3 M^−1·s^−1 | 4.2 ± 0.38 µM | 60.0 ± 2.8 10^−3, s^−1 | (14.3 ± 0.66) × 10^3 M^−1·s^−1 | 4.5 ± 0.9 µM | 15.8 ± 1.4 10^−3, s^−1 | (3.6 ± 0.4) × 10^3 M^−1·s^−1

— paper PMC6384901, “Cyclic Peptide-Based Sirtuin Substrates” (Molecules, 2019)
